Data: paper PMC7282976

Columns and labels:
[1] = conditioned-media western and immunocytochemistry; conditions: glycan lost; control: same mutant without Tun
[2] = anti-Hag western densitometry of cell lysates; conditions: glycan lost; control: native V3, Dox, no Tun
[3] = anti-Hag immunocytochemistry, extracellular V3 staining; conditions: glycan lost; control: native V3, Dox, no Tun

Substance	expression_or_secretion [1]	expression_or_secretion, fold_change [2]	localisation_or_trafficking [3]
versican isoform V3 (rat V3): N57Q + tunicamycin	abolishes	–	–
versican isoform V3 (rat V3): N330Q + tunicamycin	abolishes	–	–
versican isoform V3 (rat V3): tunicamycin	–	decreases	no change
